Measured values published in paper PMC10250230, “Negatively charged, intrinsically disordered regions can accelerate target search by DNA-binding proteins”.

Experiments:
[1] = molecular target: Antp HD-DERT16 (UniProt P02833); experiment: fluorescence anisotropy; details: pH 5.8, 200 mM KCl, Antp Kd: 20 mM potassium succinate pH 5.8, 0.4 mM NaF, HMGB1: 10 mM K phosphate pH 7.5, 1 mM DTT, 1 mM MgCl2, 100 mM KCl, 25 C, Antp stopped-flow: …
[2] = molecular target: Antp HD-DERT7 (UniProt P02833); experiment: fluorescence anisotropy; details: pH 5.8, 200 mM KCl, Antp Kd: 20 mM potassium succinate pH 5.8, 0.4 mM NaF, HMGB1: 10 mM K phosphate pH 7.5, 1 mM DTT, 1 mM MgCl2, 100 mM KCl, 25 C, Antp stopped-flow: …
Sequence of Antp HD-DERT7 (P02833 whole entry): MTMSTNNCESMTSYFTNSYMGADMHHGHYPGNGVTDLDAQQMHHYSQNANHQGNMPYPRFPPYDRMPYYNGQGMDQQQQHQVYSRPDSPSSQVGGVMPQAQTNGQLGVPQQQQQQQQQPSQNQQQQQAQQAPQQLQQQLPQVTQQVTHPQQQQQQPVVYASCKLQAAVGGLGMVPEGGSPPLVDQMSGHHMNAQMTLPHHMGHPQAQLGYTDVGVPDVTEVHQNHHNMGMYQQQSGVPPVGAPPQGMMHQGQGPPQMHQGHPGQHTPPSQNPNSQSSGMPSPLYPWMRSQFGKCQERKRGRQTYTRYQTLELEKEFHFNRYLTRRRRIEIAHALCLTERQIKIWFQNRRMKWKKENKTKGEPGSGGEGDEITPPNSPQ

[3] = molecular target: Antp HD (control without DERT; Antp HD-MID) (UniProt P02833); experiment: fluorescence anisotropy; details: pH 5.8, 200 mM KCl, Antp Kd: 20 mM potassium succinate pH 5.8, 0.4 mM NaF, HMGB1: 10 mM K phosphate pH 7.5, 1 mM DTT, 1 mM MgCl2, 100 mM KCl, 25 C, Antp stopped-flow: …
Sequence of Antp HD (control without DERT; Antp HD-MID) (P02833 whole entry): as above

[4] = molecular target: Antp HD-DERT11 (UniProt P02833); experiment: fluorescence anisotropy; details: pH 5.8, 200 mM KCl, Antp Kd: 20 mM potassium succinate pH 5.8, 0.4 mM NaF, HMGB1: 10 mM K phosphate pH 7.5, 1 mM DTT, 1 mM MgCl2, 100 mM KCl, 25 C, Antp stopped-flow: …
Sequence of Antp HD-DERT11 (P02833 whole entry): as above

[5] = molecular target: HMGB1 full-length (human, UniProt P09429 1-215); experiment: competition (fluorescence anisotropy); 10 mM K phosphate pH 7.5, 1 mM DTT, 1 mM MgCl2, 100 mM KCl, 25 C; apparent Kd; Antp Kd: 20 mM potassium succinate pH 5.8, 0.4 mM NaF, 200 mM KCl; HMGB1: 10 mM K phosphate pH 7.5, 1 mM DTT, 1 mM MgCl2, 100 mM KCl, 25 C; Antp stopped-flow: 1; details: protein: recombinant
Sequence of HMGB1 full-length (P09429 whole entry): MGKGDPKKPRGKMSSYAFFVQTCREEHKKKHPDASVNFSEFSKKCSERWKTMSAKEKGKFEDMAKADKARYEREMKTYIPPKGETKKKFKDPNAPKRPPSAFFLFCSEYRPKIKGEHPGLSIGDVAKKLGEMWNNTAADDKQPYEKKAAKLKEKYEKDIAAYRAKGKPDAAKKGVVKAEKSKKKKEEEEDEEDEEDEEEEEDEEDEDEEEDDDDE

Sequence of Antp HD-DERT16 (P02833 whole entry): as the sequence (P02833 whole entry) above

Molecule | Kd [1] [nM] | Kd [2] [nM] | Kd [3] [nM] | Kd [4] [nM] | Kd [5] [nM]
TAMRA-labeled 15-bp Antp recognition DNA | 61 | 19 | 2.6 | 69 | 
unlabeled cisplatin-modified DNA (dsDNA, cisplatin adduct) DNA 1: CTCTGGACCTTCCTTTCTTC DNA 2: GAAGAAAGGAAGGTCCAGAG |  |  |  |  | 17 ± 3
